Measurements as given in publication PMC6760769, “A pull-down and slot blot-based screening system for inhibitor compounds of the podoplanin-CLEC-2 interaction” (PLoS ONE, 2019).
Values belong to the molecule of their own block, whether it stands above or below them.

Tests used:
[1] = target: T1, C-type lectin-like receptor 2 (CLEC-2) (Homo sapiens, UniProt Q9P126); assay: pull-down of podoplanin (pod-HeLa lysate) with purified Fc-CLEC-2 pre-incubated with compound; slot blot and western blot; type: biochemical
T1 construct: gene CLEC1B; extracellular region of CLEC-2 (351–890, NM_016509), human IgG1 Fc-fusion (Fc-CLEC-2); with podoplanin

[2] = target: Fc moiety alone (human IgG1 Fc) (human); assay: SDS-PAGE under reducing and non-reducing conditions; purified protein, with or without 2-mercaptoethanol, Coomassie blue staining
CLEC-2 (Homo sapiens) = CLEC-2 (Homo sapiens) (UniProt Q9P126); conditions: cited from earlier work
[3] = target: immunoglobulin Fc domain-CLEC-2 fusion protein (Fc-CLEC-2) (human) (UniProt Q9P126); assay: pull-down; standard combination (25 ug/mL Fc-CLEC-2, 1.5 mg/mL pod-HeLa lysate); hematoporphyrin or 2CP pre-incubated with Fc-CLEC-2 for 30 min, 2% DMSO control, in the dark; 10 uL slot-blotted; podoplanin intensity normalised to CLEC-2 intensity
[4] = target: immunoglobulin Fc domain-CLEC-2 fusion protein (Fc-CLEC-2) (human) (UniProt Q9P126); assay: pull-down; Fc-CLEC-2 or Fc (25 ug/mL) mixed in solution with pod-HeLa lysate (1.5 mg/mL; concentrations varied in some panels) on ice for 2 h, captured on protein A beads, washed 4x with TBST in a centrifugal filter unit, acid elution, SDS-PAGE and western blot with anti-podoplanin

Chain of immunoglobulin Fc domain-CLEC-2 fusion protein (Fc-CLEC-2) (human) (Q9P126 whole entry, the tested form may be a part): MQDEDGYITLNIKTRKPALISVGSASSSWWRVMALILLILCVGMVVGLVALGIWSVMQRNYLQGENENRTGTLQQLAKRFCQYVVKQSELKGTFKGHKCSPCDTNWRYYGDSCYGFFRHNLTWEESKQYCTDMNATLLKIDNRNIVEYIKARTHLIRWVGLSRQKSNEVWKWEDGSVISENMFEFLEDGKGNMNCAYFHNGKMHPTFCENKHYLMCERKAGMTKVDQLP
T1 sequence (Q9P126 50-229, one chain of several): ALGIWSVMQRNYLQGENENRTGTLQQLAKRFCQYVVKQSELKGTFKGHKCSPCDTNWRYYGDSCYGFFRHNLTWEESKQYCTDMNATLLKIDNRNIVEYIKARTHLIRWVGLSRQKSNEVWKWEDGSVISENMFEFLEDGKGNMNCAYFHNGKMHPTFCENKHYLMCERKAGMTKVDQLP
Chain of CLEC-2 (Homo sapiens) (Q9P126 whole entry, the tested form may be a part): as the sequence (Q9P126 whole entry, the tested form may be a part) above

Molecule: CC1=C(CCC(=O)O)c2cc3[nH]c(cc4nc(cc5[nH]c(cc1n2)c(C)c5C(C)O)C(C)=C4C(C)O)c(C)c3CCC(=O)O (centres unmarked) [HPy, hematoporphyrin]
- inhibition at 20 µM [1]: ~70%

Molecule: podoplanin (from UniProt Q86YL7)
- Kd (CLEC-2 (Homo sapiens)): 25 µM

The next lines start with the values.

- stoichiometry N [2]: 2
Molecule: Fc moiety alone (human IgG1 Fc) (domain or fragment)

- percent inhibition of the pull-down by 20 uM hematoporphyrin [3]: 70%
- percent of podoplanin recovered in the pull-down [4]: < 20%
B1: podoplanin (full-length, from podoplanin-overexpressing HeLa cells) (natural protein)
chain: ASTGQPEDDTETTGLEGGVAMPGAEDDVVTPGTSEDRYKSGLTTLVATSVNSVTGIRIEDLPTSESTVHAQEQSPSATASNVATSHSTEKVDGDTQTTVEKDGLSTVTLVGIIVGVLLAIGFIGAIIVVVMRKMSGRYSP
